In the supplement of paper PMC10567573:

B1: PDS5B (parent)
chain: IYKKYALQSAAGKDAAKQIAWIKD

Variants of: B1
Assay: protein stability index of a GFP-peptide fusion (GPS, HEK-293T) (PSI 1-6); higher = more stable
Conditions: c terminus: a fixed tail appended
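Further: lentivirally expressed fusions sorted by FACS into six bins by GFP to DsRed ratio, PSI derived from sequencing read proportions per bin multiplied by bin number.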

Protein stability index, by site and new letter:
A16: H 2.29, L 2.09, N 2.39, M 2.02, I 2.47, P 2.05, Y 2.05, C 2.16, Q 2.35, K 2.33, V 2.98, T 2.46, W 2.11, G 2.92, E 2.82, R 2.12, F 1.76, D 2.75, S 2.47
I19: C 2.38, A 2.48, D 3.79
L7: C 1.93, P 2.92, S 2.68, A 2.5, W 1.69, R 2.3, N 2.81, Q 3.06, G 2.42, F 1.68, I 1.95, V 2.32, M 2.32, T 2.63, H 2.6, Y 2.04, D 3.16, K 2.55, E 2.76
K3: Q 2.33, A 2.26, N 2.27, Y 2.19, E 2.88, G 2.24, S 2.48, P 2.65, T 2.15, C 1.51, H 2.36, M 1.72, F 2.15, D 3.43, L 2.4, I 2.93, R 2.56, V 1.75, W 2.95
G12: S 1.96, Y 1.64, R 1.88, L 1.84, P 2.74, N 2.19, C 1.6, D 3.13, E 2.34, V 2.08, W 2.63, H 1.67, A 1.86, F 1.99, Q 1.58, K 1.75, T 1.71, I 1.69
A15: R 2.09, P 2.56, Q 2.29, L 2.64, G 2.9, K 2.76, H 2.22, N 2.5, S 2.73, D 2.35, W 1.43, V 1.71, C 1.89, F 1.75, T 2.35, Y 1.45, E 2.7, M 1.83, I 1.69
Y5: T 3.36, Q 2.99, A 2.78, S 2.65, L 2.36, I 2.26, F 1.92, W 1.98, H 2.46, V 2.89, C 1.75, D 3.79, N 2.93, M 1.91, K 2.93, P 3.63, R 2.43, G 2.82, E 3.09
K4: N 2.68, G 2.61, D 3.24, L 1.75, Q 2.6, T 2.7, V 1.55, S 2.23, I 2.44, R 2.25, C 1.61, A 2.13, P 2.71, H 2.39, W 1.35, F 2.32, M 1.95, E 2.68, Y 1.84
Q8: T 1.84, D 2.27, W 1.92, S 2.25, L 1.85, H 1.83, N 2.06, C 1.29, G 2.01, R 2.21, K 2.35, P 2.72, I 2.7, E 2.67, Y 1.69, V 2.17, F 3.35, A 2.4, M 2.06
Q18: L 1.99, C 1.75, E 2.45, T 1.6, G 2.45, D 2.83, K 2.6, W 2.18, I 2.4, A 2.06, R 2.24, H 2.43, M 2.38, Y 1.33, V 2.07, N 2.49, F 2.33, P 2.37, S 2.58
A11: Y 1.8, G 2.65, E 2.43, M 1.78, C 1.58, W 1.82, S 2.3, I 1.73, N 2.61, K 2.5, D 3.03, T 2.15, F 1.75, L 1.8, Q 2.69, H 1.75, R 1.75, V 2.29, P 2.27
S9: D 3.27, Y 1.75, H 2.38, T 2.06, C 2, M 2.44, V 2.13, Q 2.79, F 2, K 1.87, W 1.99, G 2.17, I 1.93, N 2.2, A 2.16, R 2.29, L 1.76, P 2.17, E 2.73
A6: I 2.12, D 2.32, Q 2.85, M 1.8, S 2.49, C 1.85, R 2.55, F 2.49, P 3.02, T 2.39, G 2.88, L 1.86, Y 1.52, H 1.97, E 3.2, N 2.18, K 2.18, V 1.82, W 2
I1: V 2.61, T 3.11, N 2.41, R 2.5, W 2.14, P 2.77, S 2.63, Q 3.23, Y 2.1
A10: S 2.36, W 1.77, C 1.72, H 1.84, N 2.19, P 2.26, Y 1.75, F 1.37, V 2.1, D 2.53, R 1.37, I 1.89, L 2.32, Q 2.4, E 2.38, K 2, T 2.42, M 1.83, G 1.71
D14: V 2.1, M 2.1, I 1.82, L 1.68, S 2.15, G 2.24, C 1.36, W 2.1, R 2.72, K 2.28, Y 1.85, E 2.1, H 1.86, P 2.34, Q 2.15, N 2.19, A 1.9, T 1.94, F 2.07
K13: R 2.77, Y 2.92, I 2.16, C 1.94, P 2.4, D 2.6, N 2.27, A 2.93, G 2.22, T 2.3, H 2.29, V 2, L 2.14, F 1.93, M 2.17, W 1.84, Q 2.1, E 2.55, S 2.28
K17: E 3.42, F 1.32, G 2.35, D 3.27, M 1.38, V 2.12, C 2.04, L 2.07, H 2.89, I 1.79, T 2.92, Y 1.66, P 2.51, A 2.48, W 1.63, S 2.67, N 2.51, Q 2.19, R 2.67
Y2: W 2.32, F 1.67, I 1.77, N 2.98, L 2.34, C 2.96, T 2.98, S 2.84, E 3.9, Q 2.5, G 3.38, K 2.87, A 2.32, R 2.38, H 3.02, M 4.12, V 2.27, P 3.19, D 3.75
